What is called Kd is a measure of binding affinity in units of concentration.

Data on two molecules can be found in publication PMC3979106 (Structure(London, England:1993), 2014).

One test deals with Ube2T (Homo sapiens) (UniProt Q9NPD8). To be noted: cited from earlier work.
The target in test [1] is T1, Human Ube2T Arg99Ser/Ser101Arg (human, UniProt Q9NPD8 1-197, Arg99Ser | Ser101Arg).
T1 construct: Ube2T, human, double point mutant; also called Arg99Ser/Ser101Arg-Ube2T; source: E. coli, expressed as WT protein, purified; not shown: 6xHis-Smt3, N-terminal, cleaved
T1 sequence (looked up): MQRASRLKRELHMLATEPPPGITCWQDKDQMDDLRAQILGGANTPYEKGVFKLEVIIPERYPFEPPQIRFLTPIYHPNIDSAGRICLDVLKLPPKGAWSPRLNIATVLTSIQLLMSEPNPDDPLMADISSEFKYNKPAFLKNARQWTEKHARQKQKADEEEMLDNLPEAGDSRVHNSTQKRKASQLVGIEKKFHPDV
As to the kind of experiment: SEC; analytical size-exclusion chromatography, Superdex 75 10/300; RING domain and one E2 incubated 1 hr on ice in 0.1 M NaCl, 0.1 M Tris pH 8, 250 μM TCEP; complex read as a peak shift to the left. To be noted: both partners purified.

The target of the next test is T2, Human Ube2T Ser5Arg (human, UniProt Q9NPD8 1-197, Ser5Arg).
T2 construct: Ube2T, human, point mutant; also called Ser5Arg-Ube2T; source: E. coli, expressed as WT protein, purified; not shown: 6xHis-Smt3, N-terminal, cleaved
T2 sequence (looked up): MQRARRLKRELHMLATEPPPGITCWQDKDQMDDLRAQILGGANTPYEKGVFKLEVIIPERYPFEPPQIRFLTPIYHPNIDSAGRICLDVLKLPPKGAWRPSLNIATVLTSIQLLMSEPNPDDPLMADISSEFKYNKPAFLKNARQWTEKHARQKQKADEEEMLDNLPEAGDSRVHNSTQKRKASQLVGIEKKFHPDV
The test is described as above. To be noted: both partners purified.

In the case of FANCL (from UniProt Q9NW38), the Kd in the test with Ube2T (Homo sapiens) is 500 nM.

B1: Human FANCL RING domain (residues 289–375) (domain or fragment, UniProt Q9NW38 289-375, looked up)
chain: EIDFPARAILEKSDFTMDCGICYAYQLDGTIPDQVCDNSQCGQPFHQICLYEWLRGLLTSRQSFNIIFGECPYCSKPITLKMSGRKH
notes: FANCL, human, RING domain, residues 289-375, cloned from synthetic codon-optimised human FANCL DNA (GeneArt); also called WT RING; source: E. coli BL21, purified (Ni-NTA, Ulp1 cleavage, Superdex); not shown: 6xHis-Smt3, N-terminal, cleaved
As to B1, the binding result (in test [1]; with Human Ube2T Ser5Arg) was “binds” each time.
